# B1: BBSome complex member BBS5 (Homo sapiens), Q8N3I7 (parent)
# chain: MSVLDALWEDRDVRFDLSAQQMKTRPGEVLIDCLDSIEDTKGNNGDRGRLLVTNLRILWHSLALSRVNVSVGYNCILNITTRTANSKLRGQTEALYILTKCNSTRFEFIFTNLVPGSPRLFTSVMAVHRAYETSKMYRDFKLRSALIQNKQLRLLPQEHVYDKINGVWNLSSDQGNLGTFFITNVRIVWHANMNDSFNVSIPYLQIRSIKIRDSKFGLALVIESSQQSGGYVLGFKIDPVEKLQESVKEINSLHKVYSASPIFGVDYEMEEKPQPLEALTVEQIQDDVEIDSDGHTDAFVAYFADGNKQQDREPVFSEELGLAIEKLKDGFTLQGLWEVMS
# partner: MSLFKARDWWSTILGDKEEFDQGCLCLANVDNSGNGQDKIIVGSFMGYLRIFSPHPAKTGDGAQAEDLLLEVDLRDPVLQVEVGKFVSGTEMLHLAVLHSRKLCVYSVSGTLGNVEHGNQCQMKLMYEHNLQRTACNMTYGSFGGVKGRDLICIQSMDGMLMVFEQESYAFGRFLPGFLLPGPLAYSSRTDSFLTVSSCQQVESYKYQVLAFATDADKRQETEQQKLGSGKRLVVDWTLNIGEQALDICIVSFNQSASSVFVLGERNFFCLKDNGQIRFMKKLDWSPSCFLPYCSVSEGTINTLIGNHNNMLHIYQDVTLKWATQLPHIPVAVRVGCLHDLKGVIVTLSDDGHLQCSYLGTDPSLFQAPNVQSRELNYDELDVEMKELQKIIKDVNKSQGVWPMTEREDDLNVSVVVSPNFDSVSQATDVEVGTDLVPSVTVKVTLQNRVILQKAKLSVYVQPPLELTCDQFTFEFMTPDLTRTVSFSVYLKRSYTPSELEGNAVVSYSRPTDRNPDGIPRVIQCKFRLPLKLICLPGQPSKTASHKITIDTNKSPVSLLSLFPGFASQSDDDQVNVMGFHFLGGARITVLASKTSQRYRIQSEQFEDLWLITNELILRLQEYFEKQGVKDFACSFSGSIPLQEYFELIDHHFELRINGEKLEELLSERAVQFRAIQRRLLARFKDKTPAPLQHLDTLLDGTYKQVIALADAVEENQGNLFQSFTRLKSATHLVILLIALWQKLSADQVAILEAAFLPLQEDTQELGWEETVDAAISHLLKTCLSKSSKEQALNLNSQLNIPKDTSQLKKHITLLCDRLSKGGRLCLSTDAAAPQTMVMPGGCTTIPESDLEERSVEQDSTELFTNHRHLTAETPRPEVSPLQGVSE
# Variants of: B1
# Settings: with pthb1_human BBS9, Q3SYG4
row,Variant,effect of a mutation on the interaction
1,R212A,with no effect
2,R212E,with no effect
3,R212K,with no effect
4,I222K,with no effect
5,I222A,with no effect
6,I222E,disrupting interaction strength
7,Q226A,with no effect
8,Q226E,with no effect
9,Q226K,with no effect
10,G217E,with no effect
11,G217K,with no effect
12,G217A,with no effect
13,G217D,disrupting interaction strength
14,Q227E,with no effect
15,Q227A,disrupting interaction strength
16,Q227K,with no effect
17,F216A,with no effect
18,F216K,with no effect
19,F216E,with no effect
20,L218K,with no effect
21,L218E,with no effect
22,L218A,with no effect
23,V221E,with no effect
24,V221K,with no effect
25,V221A,with no effect
26,Q205A,with no effect

row,Variant,effect of a mutation on the interaction
1,Q205K,with no effect
2,Q205E,with no effect
3,R207E,with no effect
4,R207A,with no effect
5,R207K,with no effect
6,A219E,with no effect
7,A219K,with no effect
8,D213E,with no effect
9,D213K,with no effect
10,D213A,with no effect
11,S225A,with no effect
12,S225K,with no effect
13,S225E,with no effect
14,Y203A,with no effect
15,Y203K,with no effect
16,Y203E,with no effect
17,S228A,with no effect
18,S228K,with no effect
19,S228E,with no effect
20,L204E,with no effect
21,L204K,with no effect
22,L204A,with no effect
23,S214A,with no effect
24,S214K,with no effect
25,S214E,with no effect
26,E223A,with no effect

row,Variant,effect of a mutation on the interaction
1,E223K,with no effect
2,K215A,with no effect
3,K215E,with no effect
4,K210E,with no effect
5,K210A,with no effect
6,L220E,with no effect
7,L220A,with no effect
8,L220K,with no effect
9,S208A,with no effect
10,S208K,with no effect
11,S208E,with no effect
12,I209E,with no effect
13,I209A,with no effect
14,I209K,with no effect
15,I206E,with no effect
16,I206A,with no effect
17,I206K,with no effect
18,S224E,with no effect
19,S224K,with no effect
20,S224A,with no effect
21,I211K,with no effect
22,I211E,with no effect
23,I211A,with no effect
24,P202K,with no effect

# Next, values leading:
row,effect of a mutation on the interaction,Variant
1,disrupting interaction strength,D238N
2,with no effect,D238A
3,with no effect,D238K
4,with no effect,D238E
5,with no effect,L243A
6,with no effect,L243K
7,with no effect,L243E
8,with no effect,L233E
9,disrupting interaction strength,L233A
10,with no effect,L233K
11,with no effect,Y231K
12,with no effect,Y231E
13,disrupting interaction strength,Y231A
14,with no effect,N251K
15,with no effect,N251A
16,with no effect,N251E
17,with no effect,Y257A
18,with no effect,Y257E
19,disrupting interaction strength,Y257K
20,with no effect,S246K
21,with no effect,S246E
22,with no effect,S246A

row,effect of a mutation on the interaction,Variant
1,with no effect,V240E
2,with no effect,V240A
3,with no effect,V240K
4,with no effect,L253K
5,with no effect,L253E
6,with no effect,L253A
7,with no effect,I250K
8,with no effect,I250A
9,with no effect,I250E
10,with no effect,G230E
11,with no effect,G230A
12,with no effect,G230K
13,with no effect,V247K
14,with no effect,V247A
15,disrupting interaction strength,V247I
16,with no effect,V247E
17,with no effect,K255A
18,with no effect,K255E
19,with no effect,A259K
20,with no effect,A259E
21,with no effect,P239K
22,with no effect,P239E

row,effect of a mutation on the interaction,Variant
1,with no effect,P239A
2,with no effect,E245K
3,with no effect,E245A
4,with no effect,P261E
5,with no effect,P261K
6,with no effect,P261A
7,with no effect,F235E
8,with no effect,F235A
9,disrupting interaction strength,F235K
10,with no effect,V256A
11,with no effect,V256E
12,with no effect,V256K
13,with no effect,S258E
14,with no effect,S258K
15,with no effect,S258A
16,with no effect,F263A
17,with no effect,F263K
18,with no effect,F263E
19,with no effect,H254A
20,with no effect,H254E
21,with no effect,H254K
22,with no effect,I237K

row,effect of a mutation on the interaction,Variant
1,with no effect,I237A
2,with no effect,I237E
3,with no effect,E249K
4,with no effect,E249A
5,with no effect,I262K
6,with no effect,I262A
7,with no effect,I262E
8,with no effect,E241A
9,with no effect,E241K
10,with no effect,G264K
11,with no effect,G264E
12,with no effect,G264A
13,with no effect,V232E
14,with no effect,V232K
15,with no effect,V232A
16,with no effect,V265A
17,with no effect,V265E
18,with no effect,V265K
19,disrupting interaction strength,K236E
20,with no effect,K236A
21,with no effect,K248E
22,with no effect,K248A

row,effect of a mutation on the interaction,Variant
1,with no effect,S252E
2,with no effect,S252A
3,with no effect,S252K
4,with no effect,G229E
5,with no effect,G229K
6,disrupting interaction strength,G229S
7,with no effect,G229A
8,with no effect,G234K
9,with no effect,G234E
10,disrupting interaction strength,G234A
11,with no effect,Q244K
12,with no effect,Q244E
13,with no effect,Q244A
14,with no effect,K242E
15,with no effect,K242A
16,with no effect,S260K
17,with no effect,S260E
18,with no effect,S260A
